Experimental data reported in the supplement of paper PMC11502859.

These substances were tested on HEK293T (assay: median enrichment of reporter reads in eGFP-reduced (low/intermediate) vs eGFP-high sorted cells (eGFP-extension fusion abundance) (ratio); higher = stronger loss of eGFP-fusion protein abundance (more destabilising extension)).
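Further: lentiviral eGFP-IRES-mCherry reporter pool sorted by FACS 96 h post-transduction, gated on mCherry-high cells, Illumina read counts normalized per million, median across four biological replicates.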

| Substance | median enrichment |
| --- | --- |
| EPWPWAPPQGRASRNGDSPGTACPQRGGGHSWAPESLRVLPTEPLGWEGAGGLARTPTFASSSSCPAGRAPPCMMGKAILPLP [SCN1B] | 2.5 |
| LAASRATSPHVGCPSWGREGQSVGWLGRGLALVGQPTPQPERA [RBM10] | 8.96 |
| LVLLVLLICRCHRTAVTRFLIVPAQPCPRTLGCMSHNMDPG [TREML4] | 3.13 |
| RALLAPAFHALPIPPPPPPPPATEGRPEPPSLPSPLGGRGGHWKGGTPPPQQLRRGFWN [TOMM40] | 0.777 |
| LDRTWEPGGWEGQG [SLC35G6] | 0.429 |
| WVKEEKPSTP [TAS2R19] | 0.336 |
| GTLTV [ABCB1] | 0.767 |
| KQP [PSG11] | 0.269 |
| WWWWW [Trp05] | 7.38 |
| LRRGGKREKMERGAGNGGERTSKETEMKT [ZSWIM9] | 1.53 |
| YIWLFMHCGMCSSFSVFRYKVLYQSVIYKVYQHKCW [MLH1] | 23.5 |
| EDPGTQRLCPPRPQSVPITLTVLHTVHAPLLAFFREKENFTTGSH [SERTAD2] | 6.58 |
| RGTAVPACSPHLGRGSLAAFSLRSRST [AGAP1] | 0.942 |
| QLDHDLVQ [TRAT1] | 0.266 |
| YGRFY [OR5L1] | 1.25 |
| YDSNPDPGLIFQSPPSCGTASVC [NFKBID] | 4.34 |
| MMMMMMMMM [Met09] | 8.27 |
| RGAV [RELT] | 0.538 |
| YQGPSQYPWRTREIAPYRQWRGVPSHRQEPEAQAAHPFQPSRTHTDGREGGHSMNYC [XYLT2] | 1.21 |
| WWLWLQRT [FAAH] | 11.2 |
| YVNV [CLEC2B] | 0.896 |
| CAS [FAM118B] | 0.212 |
| CCCCCC [Cys06] | 12.4 |
| YPALLPSDGHPSRGLSHTVPLRSA [CTDSP2] | 9.24 |
| YINEENKRS [CLEC7A] | 0.716 |

| Substance | median enrichment |
| --- | --- |
| YSFKSNRIIFHLAVVRSN [SS18L2] | 12.1 |
| ASVLLRGAVCGEGLSWQGKHLRVTLTLGPLLFLKRLLATGKKNDLATLEETSAKEDVLASLSYFCSVVDLHIVVYLVWKCVSK [POLR1D] | 7.42 |
| QSIQQSLIRHAKI [SDHAF3] | 4.37 |
| QHLPEETPLPTLPERGSLRTGWRRWGPSRAPGALPGMSRPTHPKAGAAAPCCPSPGLGNDDPPKSPSAPQTQGLRPPAPGIRE [FXYD7] | 0.759 |
| YILDLFYFLWSKFWCD [MIER1] | 7.56 |
| LAGVFVPVSLILSRH [KCNS3] | 5.72 |
| GHAQAMNPQLSQMADRWSPAPIATCNSEKISLVTDQCHGGAC [SHISA3] | 1.98 |
| CRVAFFLL [GTF2A1] | 11 |
| LIHSQGKLGNSEEKSLPSFWMNCMSSGLSTTM [RNF32] | 10 |
| SHGGVRSCPCSESTFPAIPGAGGACASAIPCDQAPRGRDQRGRKHCACAELSASARRASLPNQPWVPGSRLEPAINSLFLAPG [TSSK6] | 4.1 |
| GWLPRPGRLLDILFWLNIVLWMVPQSGARILPRRKATNGSGNYIKPETLQQGENCAPGCLAQASLEPSKHFCPS [MAB21L3] | 7.37 |
| RHSPLLVPH [TP53] | 0.971 |
| WVSAVLGTPAHSTLLEYLFPNATSVCFFLFPQSLSVSEPWAL [LALBA] | 10.8 |
| YKGRAQQCK [IRX2] | 0.955 |
| WELLFLGEGEEGKGPGSRGTRG [EPHB1] | 5.5 |
| LEQ [UNC93A] | 0.561 |
| QAVNSTFKVI [LMNTD1] | 0.803 |
| WWWRHAQWMILLLPATSTSRNESLGGCQELVLAPPPP [MAP4K1] | 13 |
| SRR [TMEM52] | 0.803 |
| FPPPPSSGSPRSNVPPATFPLWPPAELICLSHRSWCLPLHRSLNAATLAGSRWKLVEGPCQVTAMLSLSRHGPGSFRHIQILH [S100A7A] | 8.52 |
| KPGNPYSFSNTGSFI [ADAM30] | 0.59 |
| RGLGWAGARRAAGWPLGGQDGTVGTEVGGRGPSGLN [TNFRSF8] | 6.62 |
| RLYRLRR [ST3GAL6] | 10.7 |
| CFWNRVKLSQRRRKSPGICTS [PPP1R14C] | 13.7 |
| RGKRAPVRRKGRRFRDVGGHPSPSRPCWGHGSGGGDMGPRQTASPTEHLDSNSVPGGAPTPPFSVSSCLFFFIFITKFHSF [ZFP36L2] | 5.27 |

| Substance | median enrichment |
| --- | --- |
| WDRAGDEARPWTLHPAIETGLRRKEDPGQDPGRLATPPTPRTYSR [NUPR1] | 5.32 |
| WRFLLKLTLFHLSF [VHL] | 9.11 |
| LRQRQHQCRACPAALSLHALRAPLLLRYPFETSGAGPLPASLTIPRPLSHLGLGKPDSTQDQGSHEARRLRGSCPFSYSRA [SHOX2] | 5.48 |
| RSHFCQMLPSTINALGGRRGRQ [ETHE1] | 12.6 |
| QGIQGTAL [CXorf26] | 0.941 |
| SPSDYIFNTTPPTPSWVRVSPVCPRPIKSTCHC [GPS2] | 5.9 |
| KVCRSQ [KRTAP11-1] | 3.09 |
| SCRVFSSFFLLQEFVVT [MMP16] | 3.12 |
| STSAHILESYYS [ACADL] | 0.545 |
| KLICKIRNWTHIALFECEVR [RNF182] | 12.7 |
| WEMVGIRLRAASTQSQSKASLLMCEFTNSDGSSHILQMLSLPAG [ITSN2] | 19.2 |
| WNEKYCGHLNNGLVSYNEMFSRILK [UGP2] | 3.44 |
| LDALAMAQEKPARKNQTDFHTKEEASIFFFLFFIGVVTKPFRLLLFKI [QRICH1] | 10.6 |
| WLVTEDEDNSITKLF [CD58] | 17.6 |
| SVWAGLFNMVFAVLPPWGPWSDNIVSLVRLSRCLIRTANGASPTPPRVRPPFHQRVSSQRPPASCPAAQEEKEGLNSIAIFFP [PDGFB] | 7.44 |
| SDDILSPCVAFYLRFPRPAMFSSSPFSLYKNSFSRKTLISIVYMSLWLRH [ACTR3C] | 17.1 |
| EPSPPLLCVGTGGPWPVPGHSGQGPRDISTRSWRAVRIHSACPALAGQRQGRTFGKTKTVGDRVCVYLCVSVSVCERELVSLK [TCF15] | 6.39 |
| SGGV [DHRS2] | 0.226 |
| LAAHPASSHVVWEQRDSHLRGGV [RASAL3] | 2.07 |
| SSSSLFLGNSLLFLPHGRCK [MAX] | 4.93 |
| WGEPQTLRES [C7orf61] | 0.458 |
| YAQP [MST1] | 0.278 |
| WLHNPVYAFCTKKK [ZSCAN5A] | 8.24 |
| SLYGAICPPSPSRTLEGTSAPAGLGPPLSLLQASWCLHTSGSWPRKSQQEQGMGEGRCHTTWR [CISH] | 4.49 |
| LVC [SYT16] | 1.2 |

| Substance | median enrichment |
| --- | --- |
| YEEVSATSPPEPAVIFTAPAHLSPTCSFDPWTWYTSMWSCWARGVLCAVNSVGSCSGVGARFLPPWAEGPFPLVLCPHPPPFS [KLHDC3] | 5.82 |
| SVFGKQQRASPLPGGLPCRFWASFPCLSLFRCAFHL [MAP2K1] | 12.4 |
| TTTTTTTTTT [Thr10] | 0.379 |
| LNFNKTFKITEIFKI [LIAS] | 9.41 |
| LLAL [MS4A5] | 7.23 |
| YALGKKDCNQRKSIGVEEIKLTLFWLFF [GLI3] | 23.4 |
| LDRKEYERAIHHQTAHTGEK [ZNF573] | 0.396 |
| QTGRLDF [RPL24] | 0.466 |
| YIPVSIQKSNKKFSVKCAILLCVL [RPL11] | 0.764 |
| QSTF [ST8SIA4] | 0.477 |
| KSYLSLSNGMKLDNFKKLSRTKGERNTCSFSCN [KLHL4] | 5.48 |
| SDASTGPSLFCPQP [HSPB8] | 0.471 |
| WQLPGDSRLSDSLQEKTVRPPFGPH [SYCE2] | 0.972 |
| SGWLSLPFSPSLSALGSVSTAGPKVKVLPLPEASWQGLSWLEVASLVPVLTPRPQRSCLPCCLSPPLCLCLRCVSHSEPPCFC [CCDC97] | 5.33 |
| HHHH [His04] | 0.323 |
| LGHANNQSCSNFKPVTAHNRPGSELCEGP [CDON] | 0.661 |
| WWPRIPIEQHKARLG [RNF216] | 26.7 |
| QCLCRIKCLLFYMHILKEKQRPEPRRG [RIOX2] | 4.27 |
| KKKKKKKKK [Lys09] | 3.65 |
| GISVSSLISGIFVDKIRRNSCNF [KATNAL1] | 2.39 |
| YPVTPRDCLVQVVAAGGTHAAPRSEQTLPCRPAPAGPDGPLWRLDLLGQAALGLSAPSCLSRCDRARPKPGCTLLDWASLHCL [MLST8] | 4.58 |
| EKPSRRKNSLSQFSKEPRILQRMCEDFPVLDGE [SAMD7] | 1.53 |
| YMHCSGS [STT3B] | 2.33 |
| QNIYRVTKNKQSKKKTVY [LRRC4C] | 31.9 |
| LAGAAGVPPAPGPWVSAARPPPVPAVLSVHWGPSVVPFVENLLHKALLNCLELGTSIPMETSPVWGTWRICQRLSDMGPWQFY [NYNRIN] | 6.95 |

| Substance | median enrichment |
| --- | --- |
| YLEYIFV [CEP192] | 4.56 |
| YISTLFLKLTFQCH [GPNMB] | 7.14 |
| QPKTRGSDLC [EPC2] | 0.415 |
| GPPSTSQQQD [DENND5A] | 0.577 |
| SNSLRLAAPLGFLPCRTCLEVLPGGGGRGRLDLLS [AQP6] | 3.45 |
| QEGQDLYSRLVQQRLMD [TAP2] | 0.376 |
| KQEWQSKLKL [UHRF1BP1L] | 0.342 |
| LLLLLL [Leu06] | 6.86 |
| RKGGSYSQAAM [HLA-G] | 0.441 |
| ELLPLSTRSSWQRELRTAAALSVRWRPTSRFCPALCG [ACVR1B] | 9.04 |
| WARSAVSSQWILVNWWRLADTLEKPKPESLLFSLFSCLCSVSLNTTFSAMVCG [MRFAP1] | 5.48 |
| WFSPVICSINGLIINVSLRHDKHFNTQ [DNAAF1] | 13.3 |
| RENQHP [CRYBG3] | 0.514 |
| GVPGHSGLVQTPLL [PAF1] | 0.255 |
| CEGYYPFYYGTMPCVKNNHPLAYSH [DPY19L2] | 8.92 |
| WGPVHAGGLRDPHNPQTQSPRALPKPLAWLQSRLRAGATYPCAGTCSLCSVLITPP [RUSC2] | 7.23 |
| KQWQQLGLETSRWCWDHLSLLLLASHSL [PACRG] | 7.92 |
| GVFDS [DDX50] | 0.357 |
| RELHYPFPSQTTN [MDC1] | 0.473 |
| YEPYSFKPYVFLCAFFPYPSSLALPFLNTAAL [UBQLN3] | 7.8 |
| NNNNNNNN [Asn08] | 0.184 |
| SEVLLETKSPSPIAEGGGDPLL [ARID3C] | 0.257 |
